Test results reported in PMC10786891, “Massively parallel profiling of RNA-targeting CRISPR-Cas13d”.

T1: EsCas13d, nuclease-dead (Eubacterium siraeum, UniProt B0MS50, R295A;H300A;R849A;H854A)
T1 sequence: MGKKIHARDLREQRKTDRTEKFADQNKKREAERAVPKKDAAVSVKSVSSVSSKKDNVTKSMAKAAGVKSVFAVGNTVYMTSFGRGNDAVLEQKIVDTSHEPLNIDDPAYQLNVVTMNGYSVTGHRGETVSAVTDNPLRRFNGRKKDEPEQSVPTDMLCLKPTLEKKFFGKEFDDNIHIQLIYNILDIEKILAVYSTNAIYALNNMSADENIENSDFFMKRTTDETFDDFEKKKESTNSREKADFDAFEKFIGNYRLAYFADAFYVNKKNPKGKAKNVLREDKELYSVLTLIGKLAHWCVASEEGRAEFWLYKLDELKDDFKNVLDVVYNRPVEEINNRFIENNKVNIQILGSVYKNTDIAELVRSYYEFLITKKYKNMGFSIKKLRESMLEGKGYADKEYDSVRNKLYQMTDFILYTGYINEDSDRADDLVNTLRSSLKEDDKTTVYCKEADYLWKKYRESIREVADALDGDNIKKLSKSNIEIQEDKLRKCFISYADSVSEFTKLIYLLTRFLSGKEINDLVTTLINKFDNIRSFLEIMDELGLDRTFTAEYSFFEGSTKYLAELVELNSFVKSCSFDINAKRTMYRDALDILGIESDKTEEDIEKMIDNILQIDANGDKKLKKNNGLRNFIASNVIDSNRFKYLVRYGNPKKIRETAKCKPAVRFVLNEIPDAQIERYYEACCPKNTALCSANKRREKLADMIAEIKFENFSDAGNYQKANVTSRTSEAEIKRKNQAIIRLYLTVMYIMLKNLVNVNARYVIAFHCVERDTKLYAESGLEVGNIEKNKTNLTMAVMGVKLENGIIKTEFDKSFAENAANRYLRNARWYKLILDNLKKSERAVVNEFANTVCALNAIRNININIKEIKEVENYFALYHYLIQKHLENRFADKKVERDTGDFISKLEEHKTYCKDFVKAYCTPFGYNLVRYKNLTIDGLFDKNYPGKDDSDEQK

B1: target 1 C6G,A14U (mixed)
RNA 1: CACCCGUGCAAAAAUGCAGGGGUCUAAAACUGAGCGGAUAACCUCUCUAUGG
RNA 2: GGGAAUGGAUCCACAUCUACGAAUUCGUACCAUAGAGUGGUUAUCGGCUCACCGAGAUCGGAAGAGCACACGU
B2: target 1 insC 3' of 22,insU 3' of 4 (mixed)
RNA 1: CACCCGUGCAAAAAUGCAGGGGUCUAAAACUGAGCGGAUAACCUCUCUAUGG
RNA 2: GGGAAUGGAUCCACAUCUACGAAUUCGUACCCAUAGAGAGGUUAUCCGCUUCACCGAGAUCGGAAGAGCACACGU
B3: target 2 MT 5'PFS UAA 3'PFS ACU (mixed)
RNA 1: CACCCGUGCAAAAUUGCAGGGGUCUAAAACCUUCUCCAAAUUGUUUCAUCCU
RNA 2: GGGAAUGGAUCCACAUCUACGAAUUCUAAAGGAUGAAACAAUUUGGAGAAGACUAGAUCGGAAGAGCACACGU
B4: target 2 MT 5'PFS CUG 3'PFS CGA (mixed)
RNA 1: CACCCGUGCAAAAUUGCAGGGGUCUAAAACCUUCUCCAAAUUGUUUCAUCCU
RNA 2: GGGAAUGGAUCCACAUCUACGAAUUCCUGAGGAUGAAACAAUUUGGAGAAGCGAAGAUCGGAAGAGCACACGU
B5: target 2 MT 5'PFS ACU 3'PFS CAU (mixed)
RNA 1: CACCCGUGCAAAAUUGCAGGGGUCUAAAACCUUCUCCAAAUUGUUUCAUCCU
RNA 2: GGGAAUGGAUCCACAUCUACGAAUUCACUAGGAUGAAACAAUUUGGAGAAGCAUAGAUCGGAAGAGCACACGU
B6: target 2 MT 5'PFS GCA 3'PFS CAA (mixed)
RNA 1: CACCCGUGCAAAAUUGCAGGGGUCUAAAACCUUCUCCAAAUUGUUUCAUCCU
RNA 2: GGGAAUGGAUCCACAUCUACGAAUUCGCAAGGAUGAAACAAUUUGGAGAAGCAAAGAUCGGAAGAGCACACGU
B7: target 2 MT 5'PFS GAC 3'PFS CUC (mixed)
RNA 1: CACCCGUGCAAAAUUGCAGGGGUCUAAAACCUUCUCCAAAUUGUUUCAUCCU
RNA 2: GGGAAUGGAUCCACAUCUACGAAUUCGACAGGAUGAAACAAUUUGGAGAAGCUCAGAUCGGAAGAGCACACGU
B8: target 2 MT 5'PFS GAG 3'PFS AUA (mixed)
RNA 1: CACCCGUGCAAAAUUGCAGGGGUCUAAAACCUUCUCCAAAUUGUUUCAUCCU
RNA 2: GGGAAUGGAUCCACAUCUACGAAUUCGAGAGGAUGAAACAAUUUGGAGAAGAUAAGAUCGGAAGAGCACACGU
B9: target 2 MT 5'PFS GCA 3'PFS CAG (mixed)
RNA 1: CACCCGUGCAAAAUUGCAGGGGUCUAAAACCUUCUCCAAAUUGUUUCAUCCU
RNA 2: GGGAAUGGAUCCACAUCUACGAAUUCGCAAGGAUGAAACAAUUUGGAGAAGCAGAGAUCGGAAGAGCACACGU
B10: target 2 MT 5'PFS AGA 3'PFS CUU (mixed)
RNA 1: CACCCGUGCAAAAUUGCAGGGGUCUAAAACCUUCUCCAAAUUGUUUCAUCCU
RNA 2: GGGAAUGGAUCCACAUCUACGAAUUCAGAAGGAUGAAACAAUUUGGAGAAGCUUAGAUCGGAAGAGCACACGU
B11: target 2 MT 5'PFS GAG 3'PFS AUC (mixed)
RNA 1: CACCCGUGCAAAAUUGCAGGGGUCUAAAACCUUCUCCAAAUUGUUUCAUCCU
RNA 2: GGGAAUGGAUCCACAUCUACGAAUUCGAGAGGAUGAAACAAUUUGGAGAAGAUCAGAUCGGAAGAGCACACGU
B12: target 2 MT 5'PFS GCA 3'PFS CAC (mixed)
RNA 1: CACCCGUGCAAAAUUGCAGGGGUCUAAAACCUUCUCCAAAUUGUUUCAUCCU
RNA 2: GGGAAUGGAUCCACAUCUACGAAUUCGCAAGGAUGAAACAAUUUGGAGAAGCACAGAUCGGAAGAGCACACGU
B13: target 2 MT 5'PFS CUG 3'PFS CGG (mixed)
RNA 1: CACCCGUGCAAAAUUGCAGGGGUCUAAAACCUUCUCCAAAUUGUUUCAUCCU
RNA 2: GGGAAUGGAUCCACAUCUACGAAUUCCUGAGGAUGAAACAAUUUGGAGAAGCGGAGAUCGGAAGAGCACACGU
B14: target 2 MT 5'PFS GUC 3'PFS CCG (mixed)
RNA 1: CACCCGUGCAAAAUUGCAGGGGUCUAAAACCUUCUCCAAAUUGUUUCAUCCU
RNA 2: GGGAAUGGAUCCACAUCUACGAAUUCGUCAGGAUGAAACAAUUUGGAGAAGCCGAGAUCGGAAGAGCACACGU
B15: target 2 MT 5'PFS CUU 3'PFS UGA (mixed)
RNA 1: CACCCGUGCAAAAUUGCAGGGGUCUAAAACCUUCUCCAAAUUGUUUCAUCCU
RNA 2: GGGAAUGGAUCCACAUCUACGAAUUCCUUAGGAUGAAACAAUUUGGAGAAGUGAAGAUCGGAAGAGCACACGU
B16: target 2 MT 5'PFS GAG 3'PFS AUU (mixed)
RNA 1: CACCCGUGCAAAAUUGCAGGGGUCUAAAACCUUCUCCAAAUUGUUUCAUCCU
RNA 2: GGGAAUGGAUCCACAUCUACGAAUUCGAGAGGAUGAAACAAUUUGGAGAAGAUUAGAUCGGAAGAGCACACGU
B17: target 2 MT 5'PFS GAC 3'PFS CUU (mixed)
RNA 1: CACCCGUGCAAAAUUGCAGGGGUCUAAAACCUUCUCCAAAUUGUUUCAUCCU
RNA 2: GGGAAUGGAUCCACAUCUACGAAUUCGACAGGAUGAAACAAUUUGGAGAAGCUUAGAUCGGAAGAGCACACGU
B18: target 2 MT 5'PFS GCC 3'PFS UUU (mixed)
RNA 1: CACCCGUGCAAAAUUGCAGGGGUCUAAAACCUUCUCCAAAUUGUUUCAUCCU
RNA 2: GGGAAUGGAUCCACAUCUACGAAUUCGCCAGGAUGAAACAAUUUGGAGAAGUUUAGAUCGGAAGAGCACACGU
B19: target 2 MT 5'PFS CGA 3'PFS UGC (mixed)
RNA 1: CACCCGUGCAAAAUUGCAGGGGUCUAAAACCUUCUCCAAAUUGUUUCAUCCU
RNA 2: GGGAAUGGAUCCACAUCUACGAAUUCCGAAGGAUGAAACAAUUUGGAGAAGUGCAGAUCGGAAGAGCACACGU
B20: target 2 MT 5'PFS CUU 3'PFS UGC (mixed)
RNA 1: CACCCGUGCAAAAUUGCAGGGGUCUAAAACCUUCUCCAAAUUGUUUCAUCCU
RNA 2: GGGAAUGGAUCCACAUCUACGAAUUCCUUAGGAUGAAACAAUUUGGAGAAGUGCAGAUCGGAAGAGCACACGU
B21: target 2 MT 5'PFS AUA 3'PFS AGA (mixed)
RNA 1: CACCCGUGCAAAAUUGCAGGGGUCUAAAACCUUCUCCAAAUUGUUUCAUCCU
RNA 2: GGGAAUGGAUCCACAUCUACGAAUUCAUAAGGAUGAAACAAUUUGGAGAAGAGAAGAUCGGAAGAGCACACGU
B22: target 2 MT 5'PFS AUA 3'PFS AGG (mixed)
RNA 1: CACCCGUGCAAAAUUGCAGGGGUCUAAAACCUUCUCCAAAUUGUUUCAUCCU
RNA 2: GGGAAUGGAUCCACAUCUACGAAUUCAUAAGGAUGAAACAAUUUGGAGAAGAGGAGAUCGGAAGAGCACACGU
B23: target 2 MT 5'PFS AGA 3'PFS CUG (mixed)
RNA 1: CACCCGUGCAAAAUUGCAGGGGUCUAAAACCUUCUCCAAAUUGUUUCAUCCU
RNA 2: GGGAAUGGAUCCACAUCUACGAAUUCAGAAGGAUGAAACAAUUUGGAGAAGCUGAGAUCGGAAGAGCACACGU
B24: target 2 MT 5'PFS GCA 3'PFS CAU (mixed)
RNA 1: CACCCGUGCAAAAUUGCAGGGGUCUAAAACCUUCUCCAAAUUGUUUCAUCCU
RNA 2: GGGAAUGGAUCCACAUCUACGAAUUCGCAAGGAUGAAACAAUUUGGAGAAGCAUAGAUCGGAAGAGCACACGU

target: T1, EsCas13d, nuclease-dead; experiment: crRNA (strand 1, pre-loaded); Mg2+; 40 mM Tris-HCl pH 7.5, 150 mM NaCl, 6 mM MgCl2, 1 mM DTT, 0.1% Tween-20, 0.2 mg/ml BSA; 25 C; 10 min per concentration, then washed; details: tags: His6-TwinStrep-SUMO cleaved; N-terminal SNAP kept (SNAP-Surface 488); label: 3' end held by stalled T7 RNA polymerase

Q: B1 was tested. Which Kd did it give?
A: The Kd was 41 ± 14 nM.

Q: Which Kd does the source give for B2 here?
A: Its Kd is 15.1 ± 1.6 nM.

Q: How did the Kd turn out when B3 was run?
A: Its Kd is 9 ± 1.4 nM.

Q: With B4 as the binder, how does the Kd read?
A: Its Kd is 3.4 ± 0.6 nM.

Q: For B5, which Kd is on record?
A: Its Kd is 3.1 ± 0.5 nM.

Q: B6 was tested. Which Kd did it give?
A: The Kd was 7.7 ± 1.1 nM.

Q: B7 was tested. Which Kd did it give?
A: The Kd was 12.1 ± 1.3 nM.

Q: B8 was tested. Which Kd did it give?
A: The Kd was 4.8 ± 0.5 nM.

Q: How did the Kd turn out when B9 was run?
A: The Kd was 7.9 ± 1.5 nM.

Q: How did the Kd turn out when B10 was run?
A: The Kd was 8.4 ± 1.2 nM.

Q: With B11 as the binder, how does the Kd read?
A: The Kd was 9.9 ± 1.4 nM.

Q: For B12, which Kd is on record?
A: Its Kd is 7.5 ± 1 nM.

Q: With B13 as the binder, how does the Kd read?
A: Its Kd is 2.31 ± 0.31 nM.

Q: With B14 as the binder, how does the Kd read?
A: The Kd was 14.9 ± 1 nM.

Q: B15 was tested. Which Kd did it give?
A: Its Kd is 6.5 ± 2 nM.

Q: How did the Kd turn out when B16 was run?
A: The Kd was 5.6 ± 0.4 nM.

Q: For B17, which Kd is on record?
A: The Kd was 12.5 ± 1.3 nM.

Q: How did the Kd turn out when B18 was run?
A: The Kd was 41 ± 11 nM.

Q: How did the Kd turn out when B19 was run?
A: Its Kd is 6.8 ± 1.5 nM.

Q: Which Kd does the source give for B20 here?
A: The Kd was 4.5 ± 0.9 nM.

Q: Which Kd does the source give for B21 here?
A: Its Kd is 6.1 ± 1.1 nM.

Q: With B22 as the binder, how does the Kd read?
A: The Kd was 7.6 ± 1.1 nM.

Q: With B23 as the binder, how does the Kd read?
A: The Kd was 5.9 ± 1.1 nM.

Q: With B24 as the binder, how does the Kd read?
A: Its Kd is 8.8 ± 1.8 nM.
